Where two headings read alike, the source gives them in different places. Each block holds one substance with its values, some of them ahead of it.
Legend:
Assay in all cases: cell-based or functional assay
TGFβ1 (R&D systems) [1] = molecular target: TGFβ1 (R&D systems) (UniProt P01137)
TGFβ1 (R&D systems) [2] = molecular target: TGFβ1 (R&D systems) (UniProt P01137); remark: listed apart in the source
[3] = molecular target: IL-2Rαβγ (on CTLL-2 cells)
[4] = molecular target: IL-2Rβ and common γ chain (on 32Dβ cells)
[5] = molecular target: IL-2Rβ and common γ chain (on 32Dβ cells); remark: listed apart in the source
[6] = molecular target: IL-2Rβ and common γ chain (on 32Dβ cells); remark: listed apart in the source
IL-21R (on B9 cells) = molecular target: IL-21R (on B9 cells)

Chain of TGFβ1 (R&D systems) (P01137 279-390 limits assumed): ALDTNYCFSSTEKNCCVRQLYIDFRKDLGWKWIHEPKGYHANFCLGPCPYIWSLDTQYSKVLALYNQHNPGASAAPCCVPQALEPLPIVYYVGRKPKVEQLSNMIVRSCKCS
Chain of TGFR-Fc (R&D Systems) (P37173 24-159): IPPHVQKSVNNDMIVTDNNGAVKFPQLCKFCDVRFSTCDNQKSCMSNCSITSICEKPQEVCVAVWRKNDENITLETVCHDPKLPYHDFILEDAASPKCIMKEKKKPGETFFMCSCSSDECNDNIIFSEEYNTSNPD

IC50, inhibition of TGFβ1 activity, HEK-Blue TGFβ reporter cells (TGFβ1 (R&D systems) [1]): 559 pM
IC50, inhibition of TGFβ1 activity, HEK-Blue TGFβ reporter cells (TGFβ1 (R&D systems) [2]): 461 pM
Substance: TGFR-Fc (R&D Systems) (from UniProt P37173 24-159) (Fc fusion)

EC50, CTLL-2 cell proliferation (WST-1) [3]: 548 pM
Substance: recombinant IL-2 (from UniProt P60568 21-153) (ligand)

EC50, 32Dβ cell proliferation (WST-1) [4]: 16.6 pM
EC50, 32Dβ cell proliferation (WST-1) [5]: 1.6 pM
EC50, 32Dβ cell proliferation (WST-1) [6]: 10.6 pM
EC50, CTLL2 cell proliferation (PrestoBlue) [3]: 4.95 pM
EC50, CTLL2 cell proliferation (WST-1) [3]: 6.22 pM
Substance: recombinant IL-15 (from UniProt P40933 49-162) (ligand)

EC50, B9 cell proliferation (WST-1) (IL-21R (on B9 cells)): 72.5 nM
Substance: recombinant IL-21 (from UniProt Q9HBE4 32-162) (ligand)

Reference: patent US20230372399A1
